Measured values from patent US20250270341A1 (Alector, published 2025).

T1: huCD98hc ECD Avi-His (human, UniProt P08195 105-529)
T1 construct: biotinylated on the Avi tag where captured on streptavidin; also called Human CD98-AVI-His; Human CD98hc-AVI-His
T1 sequence: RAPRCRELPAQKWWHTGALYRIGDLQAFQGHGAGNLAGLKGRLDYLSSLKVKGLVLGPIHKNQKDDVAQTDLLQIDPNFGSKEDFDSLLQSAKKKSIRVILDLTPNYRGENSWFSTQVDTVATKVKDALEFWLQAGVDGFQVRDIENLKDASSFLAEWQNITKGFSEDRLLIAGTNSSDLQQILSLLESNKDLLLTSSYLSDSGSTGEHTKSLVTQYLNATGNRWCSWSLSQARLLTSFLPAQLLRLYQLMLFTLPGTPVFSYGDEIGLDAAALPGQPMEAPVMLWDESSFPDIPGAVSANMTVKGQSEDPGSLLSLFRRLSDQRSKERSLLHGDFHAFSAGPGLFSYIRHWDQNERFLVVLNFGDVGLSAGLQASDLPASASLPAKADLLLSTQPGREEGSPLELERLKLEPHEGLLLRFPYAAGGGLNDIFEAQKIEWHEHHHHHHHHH

T2: Cyno CD98hc ECD Avi-His (cynomolgus macaque, UniProt P08195 105-529 (human entry))
T2 construct: biotinylated on the Avi tag where captured on streptavidin; also called Cyno CD98-AVI-His; Cyno CD98hc-AVI-His
T2 chain: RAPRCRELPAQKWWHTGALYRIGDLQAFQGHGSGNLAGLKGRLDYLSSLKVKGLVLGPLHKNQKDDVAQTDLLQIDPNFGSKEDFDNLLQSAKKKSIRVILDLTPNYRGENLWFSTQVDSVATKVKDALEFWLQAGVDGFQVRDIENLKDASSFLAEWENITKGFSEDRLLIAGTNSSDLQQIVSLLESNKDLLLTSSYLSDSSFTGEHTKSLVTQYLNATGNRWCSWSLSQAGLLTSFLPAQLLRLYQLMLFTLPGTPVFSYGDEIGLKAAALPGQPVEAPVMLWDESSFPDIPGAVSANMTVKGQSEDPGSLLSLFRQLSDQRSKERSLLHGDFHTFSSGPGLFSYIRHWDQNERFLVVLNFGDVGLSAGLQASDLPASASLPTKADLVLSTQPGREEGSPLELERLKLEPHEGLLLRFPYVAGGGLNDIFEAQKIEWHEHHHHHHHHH

T3: muCD98hc ECD Avi-His (mouse, UniProt P10852 100-526)
T3 construct: biotinylated on the Avi tag where captured on streptavidin; also called Mouse CD98-AVI-His; Mouse CD98hc-AVI-His
T3 sequence: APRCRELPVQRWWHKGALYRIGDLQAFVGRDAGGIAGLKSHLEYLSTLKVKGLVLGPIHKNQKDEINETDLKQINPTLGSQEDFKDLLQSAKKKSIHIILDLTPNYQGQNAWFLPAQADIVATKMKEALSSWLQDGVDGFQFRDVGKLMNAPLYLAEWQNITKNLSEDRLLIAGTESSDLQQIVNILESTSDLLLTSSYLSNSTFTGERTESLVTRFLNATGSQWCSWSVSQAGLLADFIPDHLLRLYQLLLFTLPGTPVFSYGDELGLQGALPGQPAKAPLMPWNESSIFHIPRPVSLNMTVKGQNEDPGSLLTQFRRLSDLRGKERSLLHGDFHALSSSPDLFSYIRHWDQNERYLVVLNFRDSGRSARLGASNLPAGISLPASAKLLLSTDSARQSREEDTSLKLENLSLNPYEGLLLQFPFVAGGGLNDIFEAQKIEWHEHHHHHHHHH


Assays:
Assay in all cases: ELISA, hybridoma supernatant
huCD98hc ECD Avi-His = molecular target: T1, huCD98hc ECD Avi-His
Protocol: (§1) Briefly, 96-well polystyrene plates were coated with 5 μg/ml of streptavidin (Thermo Fisher, Cat #PI21125) in coating buffer (0.05M carbonate buffer, pH 9.6, Sigma, Cat #C3041) overnight at 4° C. Coated plates were then blocked with ELISA diluent (PBS+0.5% BSA+0.05% Tween20) for one hour. Blocking buffer was removed and human, cyno, or mouse Avi-His-tagged CD98hc and Avi-His-tagged human TfR polypeptides were added at 1 μg/ml in ELISA diluent and captured for 1 hour at room temperature. After washing three times with 300 μl of PBST (PBS+0.05% Tween20, Thermo 28352), the hybridoma cell culture supernatants or 1 μg/ml of commercially available purified mouse anti-human CD98hc monoclonal antibody (Sigma Aldrich, Cat #SAB 4700503) and rat anti-mouse CD98hc antibody (Bio-Rad Laboratories, Hercules, CA, Cat #MCA2684) were added (50 μl/well) to each well. After 30 minutes of incubation at room temperature, the plates were washed three times with 300 μl of PBST. […] After a final set of washes (3×300 μl in PBST), 50 μl/well of BioFx TMB substrate (Surmodics, Eden Praire, MN, Cat #TMBW-1000-01) was added to the wells. The reaction was then quenched after 5-10 mins with 50 μl/well of 2N sulfuric acid. The plates were read for absorbance at 450 nm on a SpectraMax M5 (Molecular Devices, Sunnyvale, CA) using SoftMax Pro software.

Cyno CD98hc ECD Avi-His = molecular target: T2, Cyno CD98hc ECD Avi-His
Protocol: as §1

[1] = molecular target: T4, Human TfR-AVI-His (control) (human, UniProt P02786 89-760)
T4 construct: control protein; also called Avi-His-tagged human TfR; human transferrin receptor
Protocol: as §1

muCD98hc ECD Avi-His = molecular target: T3, muCD98hc ECD Avi-His
Protocol: as §1

T4 sequence (P02786 89-760 limits assumed): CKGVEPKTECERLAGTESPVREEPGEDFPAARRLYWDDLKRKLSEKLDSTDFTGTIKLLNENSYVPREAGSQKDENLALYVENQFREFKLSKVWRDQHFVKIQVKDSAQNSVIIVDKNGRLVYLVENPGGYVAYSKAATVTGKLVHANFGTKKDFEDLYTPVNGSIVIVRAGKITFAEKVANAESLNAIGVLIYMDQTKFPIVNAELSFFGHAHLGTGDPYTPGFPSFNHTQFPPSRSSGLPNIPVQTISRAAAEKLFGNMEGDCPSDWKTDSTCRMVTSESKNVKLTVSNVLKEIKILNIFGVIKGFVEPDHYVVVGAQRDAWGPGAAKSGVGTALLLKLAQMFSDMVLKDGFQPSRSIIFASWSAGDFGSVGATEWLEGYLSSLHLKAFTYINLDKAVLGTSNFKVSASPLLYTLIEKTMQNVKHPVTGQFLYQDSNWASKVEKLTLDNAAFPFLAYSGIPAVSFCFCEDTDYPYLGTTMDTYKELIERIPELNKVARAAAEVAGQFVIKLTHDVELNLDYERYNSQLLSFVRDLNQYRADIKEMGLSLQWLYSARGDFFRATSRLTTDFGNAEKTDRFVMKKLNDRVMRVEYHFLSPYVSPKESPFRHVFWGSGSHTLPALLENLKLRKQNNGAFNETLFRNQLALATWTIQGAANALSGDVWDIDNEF

| Binder | OD450 (huCD98hc ECD Avi-His) | OD450 (Cyno CD98hc ECD Avi-His) | OD450 [1] | OD450 (muCD98hc ECD Avi-His) |
| --- | --- | --- | --- | --- |
| CD98HC.04.009 (antibody, V domains shown, hybridoma IgG) VH: QVQLKESGPGLVAPSQSLSITCTVSGFSLTSYGVHWVRQPPGKGLEWLGVIWAGGSTYYNSALMSRLSISKDNAKSQVLLKMSSLQTDDTAMYYCARDNYGGVYLDVWGAGTTVTVSS VL: ENVLTQSPASMSASPGEKVTMTCRASSSVSSSYLHWYQQKSGASPKLWIYSTSNLASGVPARFSGSGSGTSYSLTISSVEAEDAATYYCQQYSGYPLTFGSGTKLEIK | 0.991 | 1.42 | 0.0743 | 0.0688 |
| CD98HC.03.031 (antibody, V domains shown, hybridoma IgG) VH: QVQLQQSGAELVRPGVSVKISCKASGYTFTDYAMHWVKQSHAKSLEWIGVISTYYGDTTYNQKFKDKATMTVDKSSSTAYLELARLTSEDSAIYYCARVWLLSYAMDNWGQGTSVTVSS VL: DIVMTQSQRFMSTSVGDGVRITCKASQNVRTAVAWYQQKPGQSPKALINLAPNRHTGVPDRFTARGSGTDFTLTISNVQSEDLADYFCLQHWNYPLTFGAGTKLELK | 1.06 | 1.48 | 0.0873 | 0.0843 |
| CD98HC.04.006 (antibody, V domains shown, hybridoma IgG) VH: EVNLVESGGDLVQPGGSLRLSCATSGFTFTDYFMSWVRQPPGKALEWLGFIRNKAYGYTTEYSASVKGRFTISRDNSQSIFYLQMNTLRLEDSATYYCARGPFISTAPFAYWGQGTLVTVSA VL: DIVMSQSPSSLAVSVGETVTMSCKSSQSLLYSSNQKNYLAWYQQKPGQSPKLLIYWGSTRESGVPDRFTGSGSGTDFTLTISSVKAEDLAVYYCQHYYGYPWTFGGGTKLEIK | 1.24 | 1.71 | 0.129 | 0.13 |
| CD98HC.04.010 (antibody, V domains shown, hybridoma IgG) VH: QVQLQQSGAELMKPGASVKISCKATGYTFSTYWIEWVKQRPGHGLEWIGEILPGSGTTTYNEKFKGKATFTADTSSNTAYMQLSSLTSEDSAVYYCARRTVYYRYEGIDYWGQGTTLTVSS VL: QIVLTQSPAIMSASPGEKVTITCSASSSVSYMFWFQQRPGTSPKLWIYTTSNLASGVPARFSGSGSGTSYSLTISRMEAEDAATYYCQQKNNYPFTFGSGTKLEIK | 1.48 | 1.97 | 0.102 | 0.0907 |
| CD98HC.03.002 (antibody, V domains shown, hybridoma IgG) VH: DVQLVESGGGLVQPGGSRKLSCAASGFTFSTFGMHWVRQAPEKGLEWVAYISGGSTNIYYADTVKGRFTISRDNPKNTLFLQMTSLRSEDTAMYYCARETTLLATNFDYWGQGTTLTVSS VL: DIQMTQTTSSLSASLGDRVTISCRASQDISNYLNWYQQKPDGTVKLLIYYTSRLHSGVPSRFSGSGSGTDYSLTISNLEQEDIATYFCQQGSTLPRTFGGGTKLEIK | 1.53 | 1.69 | 0.073 | 0.0802 |
| CD98HC.04.003 (antibody, V domains shown, hybridoma IgG) VH: QVQLQQSGAELAKPGASLKMSCKASGYTFTDYYIHWVKQRPGQDLEWIGYINPNSAYTDSNQKFKDKATLTADKSSNTAYMQLSSLTSEDSAVYYCARKGHFYAPSFAYWGQGTLVTVSA VL: DIQMTQTTSSLSASLGDRVTISCRASQDISNYLNWYQQKPDGTVKLLIYYTSRLHSGVPSRFSGSGSGADYSLTISNLQQEDIATYFCQQGDTLPYTFGGGTKLEIE | 1.6 | 2.05 | 0.0601 | 0.0565 |

The next lines start with the values.

| OD450 (huCD98hc ECD Avi-His) | OD450 (Cyno CD98hc ECD Avi-His) | OD450 [1] | OD450 (muCD98hc ECD Avi-His) | Binder |
| --- | --- | --- | --- | --- |
| 1.64 | 1.73 | 0.074 | 0.0786 | CD98HC.04.012 (antibody, V domains shown, hybridoma IgG) VH: QVQLQQSGADLVRPGDSVKISCKGSGYTFTDNTLHWVKQSHAKSLEWIGVISPYYGDASYNQKFKGKATMTVDKSSSTAYMELARLTSEDSAIYYCARVGGRLRLGYYFDHWGQGTTLTVSS VL: NIMMTQSPSSLAVSAGEKVTMNCKSSQSVLSSSNQKNYLAWYQQKPGQSPKLLIYWASTRESGVPARFTGSGSGTDFSLTITSVQAEDLAVYYCLQYLSSYTFGGGTKLEIK |
| 1.36 | 1.89 | 0.0533 | 0.0554 | CD98HC.04.022 (antibody, V domains shown, hybridoma IgG) VH: EVQLQQSGAELVKPGASVKLSCTASGFNIKDTFMHWMKQRPEQGLEWIGRIDPANANTRYDPKFQGKATITTDTSSNTAYLQLSSLTSEDTAVYYCARDVYYDVWGAGTTVTVSS VL: DILMTQSPSSMSVSLGDTVTITCHASQGISSNIGWLQQKPGRSFKGLIYHGSNLEDGVPSRFTGSGSGTDYSLTISGLESEDFADYYCVQYAQFPRTFGGGTKLEIQ |
| 1.64 | 1.97 | 0.0717 | 0.079 | CD98HC.04.018 (antibody, V domains shown, hybridoma IgG) VH: QIQLVQSGPELKKPGETVKISCKASGYTFRNYGMNWVKQAPGKGLKWMGWINTYTGEPTYAEDFKGRFAFSLETSASTAYLQINKLKNEDEATYFCARGEAHWYFDVWGAGTTVTVSS VL: QIVLTQSPAIMSASLGERVTMTCTASSSVSSSYLYWYQQKPGSSPKLWIYSIFNLASGVPARFSGSGSGTSYSLTISSMEAEDAATYYCHQYHRSPPTFGGGTKLEIK |
| 1.51 | 1.34 | 0.103 | 0.0764 | CD98HC.04.045 (antibody, V domains shown, hybridoma IgG) VH: QIQLVQSGPELKKPGETVKISCKASGYSITNFGMNWVKQAPGKGLKWMGWVNTYTGEPTYADDFKGRFAFSLETSASTASLQINNLKNEDTATYFCTRSVITYTMDYWGQGTSVTVSS VL: DIQLTQSPSSLSASLGERVSLTCRASQEISGYLSWLQQKPDGTIKRLIYAASTLDSGVPKRFSGSRSGSDYSLTISSLESEDFADYYCLQYASYPRTFGGGTKVEIK |
| 1.17 | 2.04 | 0.0667 | 0.0717 | CD98HC.04.013 (antibody, V domains shown, hybridoma IgG) VH: EVQLVESGGDLGMPGGSLKLSCAASGFALSGYDMSWVRQTPDKRLEWVAYLSSGGGSTYYPYTVKGRFTISRDNAQNTLYLQMSSLKSEDTAIYYCARHSEVRPWFGYWGQGTLVTVSA VL: DIVMSQSPSSLAVSVGEKVTLTCKSSQSLLYSGNQKNYLAWYQQNPGQSPKLLIYWASTRESGVPDRFTGSGSGTDFTLTISSVKAEDLAVYYCQQYYTYPPTFGAGTKLGLK |
| 1.16 | 1.76 | 0.0705 | 0.067 | CD98HC.04.011 (antibody, V domains shown, hybridoma IgG) VH: DVQLQESGPDLVKPSQSLSLTCSVTVYSFTSVYSWHWIRQFPGNKLEWMGYIHDSGTTNYNPSLKSRISVTRDTSKNQFFLQLNSVTTEDTATYYCARGRPYGYDGFAYWGQGTLVTVSA VL: DIQMTQSSSYLSVSLGDRVTITCKASDHINNWLAWYQQKPGNAPRLLITGAVNLETGVPSRFSGSGSGKDYTLSITSLQTEDVATYYCQQYWSIPRTFGGGTNLEIK |
